2 molecules from article PMC5314765 can be followed below.

Data set [1] addresses T1, Abf2p (mature) (Saccharomyces cerevisiae, UniProt Q02486 27-183).
T1 sequence: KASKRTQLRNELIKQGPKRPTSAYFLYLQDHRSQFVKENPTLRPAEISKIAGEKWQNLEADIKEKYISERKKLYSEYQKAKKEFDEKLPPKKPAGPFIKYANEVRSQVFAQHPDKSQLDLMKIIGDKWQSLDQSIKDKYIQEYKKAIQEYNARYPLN
The experiment in a line: ITC.

Data set [2] addresses T1, Abf2p (mature). Description: X-ray crystallography.

B1: GC_22 (dsDNA)
DNA 1: GAAGATATCCGGGTCCCAATAA
DNA 2: TTATTGGGACCCGGATATCTTC
Consider B1, for which, in the data set with Abf2p (mature) [1], the binding result was “binds”.

B2: Af2_22 5-BrU6 (dsDNA)
DNA 1: AATAATAAATTATATAATATAA
DNA 2: TTATATTATATAATTTATTATT
modifications: T6 replaced by 5-bromouracil
With B2, the binding result with Abf2p (mature) [2] is on record as “binds”.
